The source of these data is the DeepSol protein solubility set.

This data set in a line: soluble on expression in E. coli; label from the status in PepcDB or PDB records.
For “MSLKFLLTTAQGIEDIAKREVSLLLKKLGISFQIEEKPLGIEGRLLLEAEKAYYVDEKGRKRELSISTYLNENSRLLHRVIIEIASEKFNGIEKDESEEALKRIKDFVSSLPVEQFVKVSETFAVRSFRKGDHNITSIDIARTVGEAIFERLSRFGTPLVNLDHPAVIFRAELIKDVFFLGIDTTGDSSLHKRPWRVYDHPAHLKASIANAMIELAELDGGSVLDPMCGSGTILIELALRRYSGEIIGIEKYRKHLIGAEMNALAAGVLDKIKFIQGDATQLSQYVDSVDFAISNLPYGLKIGKKSMIPDLYMKFFNELAKVLEKRGVFITTEKKAIEEAIAENGFEIIHHRVIGHGGLMVHLYVVKGIITITTDPNSSSVDKLAAALEHHHHHH”, the “soluble on expression in E. coli” value was “soluble”.

In the case of “MSLKHQETTSQQYNFSIIKHGDISTPQGFTAGGMHIGLRANKKDFGWIYSSSLASSAAVYTLNQFKAAPLIVTEDTLQKSKGKLQALVVNSANANSCTGQQGIDDARQTQTWVAQQLQIPSEHVAVASTGVIGEYLPMDKIKTGTEHIKDTNFATPGAFNEAILTTDTCTKHIAVSLKIDGKTVTIGGSAKGSGMIHPNMATMLAFITTDASIESNTLHQLLKSSTDHTFNMITVDGDTSTNDMVLVMANHQVEHQILSQDHPQWETFVDAFNFVCTFLAKAIARDGEGATKLISVNVSGAKSISDARKIGKTIVSSNLVKSAIFGEDANFGRIITAIGYSGCEIDPKCTYVQLNQIPVVDKGMAVLFDEQAMSNTLTHEHVTIDVQLGLGNAAATAYGCDLSYDYVRINASYRTEGHHHHHH”, the “soluble on expression in E. coli” value is listed as “soluble”. The same measure for “MSLKIIVVGCGKIGYTIAKVLSEKKDIDVTVVDNNPNIFDKMVEPIDVIFISGNGANEKTLIEAGAKDADLIVSTTNADELNVLCCIMAERLGTKHSIARVRNPEYMLEFNKLWKDLGIDMVINPERQTAREISRILRYHAADDIVTFIGDRVELVSFKVSETPEYFVGKSVSQIFDNNMGILLAIVERENQALIPNGDLIFKESDIIWIMGRPSQIMKFFTLIKKGPKKGQEIMVIGGGKITHYLVELLNRHTTKANIKIIKKDRSKCESLYEALSSASLERRCLFIHGDGTNEELLIDEGIDTMDACVCLTDRDEENVFISLYAMRRGVKKVITKINYIHQNMAKSLGLWLGNIITPQYITAKTVIRYVDGLSGAVGRNIMTIHQIYSGDDGNVDAIEFQVNKKAKCIDTPIKKLKLKKGILIGCISRDFDIIIPSGETEIHIGDRVIIFSKNNDIRDLDDILENEGHHHHHH”: “soluble”; for “MSLKINIKDDAQAYLADKIPAGSQVILTTDDGSNKYSSLGGSCAIGNKFQLVILKAADPDYTTPLENNAGYVMHVAPADEAYLGNGLNISRWHNALALKDDSGMLDGALAVVDWRDVSPETEAERREKMQTIGTKICEGHHHHHH”: “soluble”. Regarding “MSLKITDLRVAVVSRAPMTCPIIRIDTNQGIYGLGEVRDGASKNYALMLKSRLLNENPCNVDKLFRKIKQFGGHARQGGGVCGVEMALWDLAGKAYNVPVHQMLGGKFRDRIRCYADTTESHDPKVYGQRLKARRDEGFTWLKMDLGVDLVADVPGALTMPVGERINGNPMVAHMFTGNEITEKGIQLMCDYVAQIREIVGMDIPLSADHFGHIGVNSCIRLGKALTKYNMAWLEDMIPWQQTALLKQIADAVDIPILTGEDIYLKEPFIELCKAHAVDIIHPDLATSGGILETKKIGDAAQELGVAMAMHFAGSPVSCMANVHCAAATENFLVLENHSVDVPWWGDLVEGVSKPIVSKGFITVPNGPGLGVTLNDEVVKQHLGEPGYFEATPYWNVDRSNDRQWSEGHHHHHH”, the “soluble on expression in E. coli” value is recorded as “not soluble”.

Regarding “MSLKITDVKVWLVQGIKYNWTLLKIYTDEGYTGVGEATNWPGSPIVFEAAKHVGQRIIGLDPMKTDFIWTKLYRDLNWIGPYGASLCAISGIDMALLDLKAKVLGVPCYELLGGAYRKDIQLYANYWFTGGGHNEADYAAQARRVMDAGFTGLKFDPFAHTNYFYGEDLASNLTLTAEQQDLAFNVSKAVREAVGSECDIMIETHAMLNYRVAVKMAERLAKLDITWYEEPAGPESSQTLRAMRERIPSDVAICVGERHYTRFGIRSLLEKHVCDVIMPDITRCGGPSEMKRMATMAEAYNVLIAPHNPNGPLSTLASSHVCAAIPNFFRQEFMFNDVPWRDTVIDHPIAEMVYDGHLHLSDRPGLGVDLVEEEMEKHPGITTDAPDNFYIEGHHHHHH”, the “soluble on expression in E. coli” value is given as “soluble”. As to “MSLKITDVRVIRFRTHADRWDIGHARLRPAAEVSQTVTCIDTDAGLTGWFFGGGKHGDQDGMSPDEQRLIEGRVRDLLLGVDPFDREAVWKWMWVANLPEVAQSVIDCALWDLAGRAAGQPVYKLMGAARDKVPAYASTYPNIGPPQVYAEHALACRAEGYKAYKIHPHYFWNPDTGLPTKGRPSNIRADIETINLVREAVGPDMVLMYDVWGTYHTIEETIKVGRELERNDFYWFEHPMPEYRVESYRRLCRELSIPILAPEIAAGGVFTRAEWILQGASDMSRMDIRRGGVTGCRKTAVVCEAFGQRCEIHMAGWGNLQVMGATSQDTSEWYEKGLLAPGVDYDAPHPYLERNCDPMDAEGHVALPTAPGLGYEPIWDYIDDNRVPSEGHHHHHH”, the “soluble on expression in E. coli” value is “soluble”.

On to “MSLKITHTEIYRFSIPMEPFVIATGTMHFAQNVLIRIHTDNGLYGLGECSAFPMIVGENQDTCLVMAREFAKLLPGKDPLDIPGRMNDLLGYADRNTTIKSAFDMALFDLAAKHAGQPLYQFLGGNRKKVETDMTIGISSPEKMAQLAQHYQAQGCSILKVKLGKDIHEDIERVAQIRAAVGGMMTIRLDANQGWSFDDALYGLGALAKYDIEFCEQPMRSWYDDRLPELQLNSPIAIMADESCYNHHDARRLINSRSCEYLNIKFSKSGGILEAQKIHEVALQHGMKCMMGGMLESRLAATAKLHFALSAPNIVFFDLDTCMLGHLIDPVVGGMSYEGFILDVPEAPGIGADADPAFLDECESWRIEGHHHHHH”, for which the “soluble on expression in E. coli” value is reported as “soluble”. The value for “MSLKKILVIGSKGFIGSNLVAYYEKINTIDVWGCDVISDYSSRNYFLIDASNSDFNEVFQQVAFDVCINCSGSASVPLSMINPGRDFHLNVLNVFNMLDSIRKNIPSCKFVNLSSAAVYGNPESLPIKEDTPINPLSPYGWHKLQSEILCKQFNQNFALHTCSLRIFSAYGIGLRKQLFWDWFQKINDAASMSIYGTGKESRDFIYIDDLIQCIECVVARGDFNAGIYNIANGQEIYIADAIKEFKKASGKSFEYTFTQETRPGDPINWVADISKLKTLGYQQQVTFEKGVEILMKWLQQEKEGHHHHHH” was “soluble”; that for “MSLKKYIITLLFCTLFCHLGIAQGLKSVSILGDSYSTFEGYVQPDTNFVWYLKTPPKGRKTDMVSVRNTWWHQFIKENNYRLCVNNSFSGATICHTGYRSEDYSDRSFITRMKALGCPDIIFIFGATNDYWAKSPLGEYKYADWSKKDLYSFRPAMAYMLDTMIDYYPNVEIYFLLNDGLGNEITESVRTICKHYQIDCIELKELDKMSGHPSVKGMKQISEQVKAYMNSRQNEGHHHHHH” was “not soluble”. The same measure for “MSLKLLVLIDGSKWSQKAALHAFSIAKRKNAKVILFSVLDRREAKALAFHLSMRSDSLGKIKEFEETIWRETKKSVKEVITTLLELGRREGINCSFKIVEGSAKEEIIKEANSGKYSMVIMGAYGRSGKTRIGSLLEEVVGQIRIPVMIVREGHHHHHH”: “soluble”; for “MSLKLVENLALKYYDKVVDLRHQIHMHPELEFEEENTAHLVCKILDEFGIKYQKNIAKTGILAIIEGKKKSQKKPKCVLLRADMDALPVQEKTNLSYASKIDGKMHACGHDGHTAGLLGAALILNELKDEFCGTIKFMFQPAEEGSGGAKPMIESGVLENPYVDAVFGCHLWGPLLENTAQIVSGEMMAGTDIFDLEFIGRGGHGAHPHTCIDPIIMTTQFVNNIQSVISRRLAPYEAGVITVGQICAGTTYNVIPTNAYLKGTVRFLNDKTQDILKSSLEEVAAATAKSNGGDYKLKYTKEFPPLINDEKAVLIARKAFAKVLGEENIIVSSKPDMGAEDFAFLTRERMGAYVFVGISKDLNHPALHHSSTFCWDDENLKVLMQGDVMMALEFLNEGGSHHHHHH”: “soluble”; for “MSLKLVRKFARDIEVDELAICIPLEYKSACLIYELSRYTNVYAAKLDDFSTKPEVVSWLKEKGVEVKMKRDVVNAEYFLDCAAVLSRVAVKSGKERLKVVELTKTGEEYLRKMDVRMKAISLDSSTLKGTGENTHGTAFGLLDALLRLNVFLPGKKALILGFGRVGRGCARLLKSVGCDVAVWDNDETRQIEALYEGFRVEKDFTAEVVVTCTGVKGVLGKEELEEISDGSIILNMGAEMEIEPAGELIKDYGLVKEYEIAGKRYFLVADGYAANLALGSGTPIEVMDRTFSAAILALNHLSRSDFDGIIPLPHHIESTILEAIMMYEGHHHHHH”: “not soluble”. For the sequence “MSLKNNVYILADSVVTPLGQSTEENMEKLYSLQSAIRTYTHPQIGTFYASKFEDGKSFQIKKDAAGKTKIERLFISCIEKALERTEIDVENANVLFVFASTKGNVEYLTDETFDKNRLRIGITAQDVTAYFNNPNTPIVVSNACISGLQAIQYGYEVLQDNRYTHVVVTGADCFSEFILSGFHSFQALSPFPCKPFDKARAGLSLGEGCGTLILSNKKTDAAAIEILSVVSSNDANHLSGPSRTGEGLSSAILGAINEAGITAEQIDVISAHGTATLYNDEMESMAFKTANLEAKAVYSVKGNIGHTLGAAGIIETIYLAQSLQNNMLVPSIGFTETGTSVELNVTRQSTLKTMQIGLKTASGFGGGNTALLLKKEGHHHHHH”, the “soluble on expression in E. coli” value is listed as “not soluble”.

Turning to “MSLKNTFVYQAEKPVIKLLQITDPHLFKDESAELLGVNTQASFAQVLKEIQQENNEFDVILATGDLVQDSSDEGYIRFVEMMKPFNKPVFWIPGNHDFQPKMAEFLNQPPMNAAKHLLLGEHWQALLLDSQVYGVPHGQLSQHQLDLLKETLGKNPERYTLVVLHHHLLPTNSAWLDQHNLRNSHELAEVLAPFTNVKAILYGHIHQEVNSEWNGYQVMATPATCIQFKPDCQYFSLDTLQPGWREIELHSDGSIRTEVKRIQQAEFFPNMQEEGYEGGSHHHHHH”, the “soluble on expression in E. coli” value was “soluble”. The value for “MSLKPAPRWPLHPAPREGEALSSWLNRVALCYHMEVSELLEHDLGHAQVDDLDTAPPLALLAMLSQRSGIEPDRLRCMSFAGWVPWLLDSLDDQIPDALETYAFQLSVLLPKLRRRTRSITSWRAWLPSQPIHRACPLCLNDPANQAVLLAWKLPLMLSCPLHGCWLESYWGVPGCQRRSNTDPWRRGEGHHHHHH” was “not soluble”. Consider “MSLKPSLDELESLLIARHTPNIHNKLKKGKVAILGLGGLGSNIAISLARIGVGELLLIDYDVVEPSNLNRQQYFIDDIGKLKTDAMIENIKKINPFIKLNKRDIFLNKNNMDTIKDSDLIIEAFDDASCKAQVCNYVLINLKDKYLIASSGMAGYYDSNIITTKKIKDRFYICGDFVNEAKFGEEGHHHHHH”, for which the “soluble on expression in E. coli” value is on record as “not soluble”.

For the sequence “MSLKPVGLNYFSEKKGLLTDEDLMEDEHYCGMSFRGDEKKSIFGIFDGYGGIGAARETRRTLPNIIQKLIEQGLDSKEILEKGFSEVDEGMNKEEFMDIGCTCTLIYIWEEDNKVYIRSGNVGDSTCFVKKMNKGKPEIITLSQDHKVTSACEQKRMKEAGITLVEGQKRINGVGVARTLANHFVKNLNIGMIGTPYISPAIVLESGDEIILCSDGIWDVITPEKAFEMMENTQVSEAPKVIMEESMKITECRDNVTVIVVKILEGHHHHHH”, the “soluble on expression in E. coli” value is recorded as “not soluble”.
